Test results from patent publication US20080085860A1 (Eli Lilly, published 2008).
* marks the point of attachment. Hexanoyl = CCCCCC(=O)*

Biological target: T1, Rat VPAC1 receptor (rat, UniProt P30083 31-459)
T1 sequence (looked up): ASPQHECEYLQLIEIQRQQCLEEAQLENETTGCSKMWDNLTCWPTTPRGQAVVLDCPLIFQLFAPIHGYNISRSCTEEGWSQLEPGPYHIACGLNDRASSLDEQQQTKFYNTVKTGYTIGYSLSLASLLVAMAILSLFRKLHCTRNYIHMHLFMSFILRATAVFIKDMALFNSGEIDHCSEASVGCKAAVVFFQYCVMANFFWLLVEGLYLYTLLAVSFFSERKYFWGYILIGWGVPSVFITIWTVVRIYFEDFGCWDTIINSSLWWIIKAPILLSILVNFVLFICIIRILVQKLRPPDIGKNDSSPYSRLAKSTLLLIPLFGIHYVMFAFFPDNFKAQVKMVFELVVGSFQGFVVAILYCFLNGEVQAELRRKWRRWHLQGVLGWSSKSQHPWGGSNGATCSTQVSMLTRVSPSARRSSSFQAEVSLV
Experiment: cell-based or functional assay

B1: P136: C6-…(WPEG40K)-NH2 (SEQ ID NO: 44) (peptide)
peptide: Hexanoyl-HSDAVFTDNYTRLRKQVAAKKYLQSIKNSRTSPPPK-NH2
modifications: not fully specified (residue 36); printed as C6-HSDAVFTDNYTRLRKQVAAKKYLQSIKNSRTSPPPK(WPEG40K)-NH2
  EC50 (nm), in vitro potency using DiscoveRx (cAMP): 15 nM
